Earlier results in publication PMC6504839.
Read-outs that look alike come from different tables or passages of the source.

Columns and labels:
[1] = biological target: integrin αIIbβ3 (Homo sapiens) (UniProt P08514)
[2] = biological target: integrin αIIbβ3 (Homo sapiens) (UniProt P08514); remark: listed apart in the source

Substance | Kd [1] [µM] | Kd [2] [µM]
Disagregin (from UniProt P36235) | 0.04 | 
Savignygrin (from UniProt Q8MVZ3) |  | 0.06
